Laboratory results taken from IntAct's records for PubMed 21346797.

B1: Response regulator aspartate phosphatase H (Bacillus subtilis), Q59HN8 (parent)
chain: MSQAIPSSRVGVKINEWYKMIRQFSVPDAEILKAEVEQDIQQMEEDQDLLIYYSLMCFRHQLMLDYLEPGKTYGNRPTVTELLETIETPQKKLTGLLKYYSLFFRGMYEFDQKEYVEAIGYYREAEKELPFVSDDIEKAEFHFKVAEAYYHMKQTHVSMYHILQALDIYQNHPLYSIRTIQSLFVIAGNYDDFKHYDKALPHLEAALELAMDIQNDRFIAISLLNIANSYDRSGDDQMAVEHFQKAAKVSREKVPDLLPKVLFGLSWTLCKAGQTQKAFQFIEEGLDHITARSHKFYKELFLFLQAVYKETVDERKIHDLLSYFEKKNLHAYIEACARSAAAVFESSCHFEQAAAFYRKVLKAQEDILKGECLYAY
partner: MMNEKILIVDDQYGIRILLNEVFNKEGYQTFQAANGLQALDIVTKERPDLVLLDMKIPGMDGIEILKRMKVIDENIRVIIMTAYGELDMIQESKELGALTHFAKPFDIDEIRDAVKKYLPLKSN

Variants of: B1
Conditions: with sp0f_bacsu spo0F

| Variant | effect of a mutation on the interaction |
| --- | --- |
| MSQAIPSSRVGVKINEWYKMIRQFSVPDAEILKAEVEQDIQQMEEDNDLLIYYSLMCFRHQLMLDYLEPGKTYGNRPTVTELLETIETPQKKLTGLLKYYSLFFRGMYEFDQKEYVEAIGYYREAEKELPFVSDDIEKAEFHFKVAEAYYHMKQTHVSMYHILQALDIYQNHPLYSIRTIQSLFVIAGNYDDFKHYDKALPHLEAALELAMDIQNDRFIAISLLNIANSYDRSGDDQMAVEHFQKAAKVSREKVPDLLPKVLFGLSWTLCKAGQTQKAFQFIEEGLDHITARSHKFYKELFLFLQAVYKETVDERKIHDLLSYFEKKNLHAYIEACARSAAAVFESSCHFEQAAAFYRKVLKAQEDILKGECLYAY [Q47N] | disrupting interaction |
| MSQAIPSSRVGVKINEWYKMIRQFSVPDAEILKAEVEQDIQQMEEDQDLAIYYSLMCFRHQLMLDYLEPGKTYGNRPTVTELLETIETPQKKLTGLLKYYSLFFRGMYEFDQKEYVEAIGYYREAEKELPFVSDDIEKAEFHFKVAEAYYHMKQTHVSMYHILQALDIYQNHPLYSIRTIQSLFVIAGNYDDFKHYDKALPHLEAALELAMDIQNDRFIAISLLNIANSYDRSGDDQMAVEHFQKAAKVSREKVPDLLPKVLFGLSWTLCKAGQTQKAFQFIEEGLDHITARSHKFYKELFLFLQAVYKETVDERKIHDLLSYFEKKNLHAYIEACARSAAAVFESSCHFEQAAAFYRKVLKAQEDILKGECLYAY [L50A] | disrupting interaction |
| MSQAIPSSRVGVKINEWYKMIRQFSVPDAEILKAEVEQDIQQMEEDQDLLIYYSLMCARHQLMLDYLEPGKTYGNRPTVTELLETIETPQKKLTGLLKYYSLFFRGMYEFDQKEYVEAIGYYREAEKELPFVSDDIEKAEFHFKVAEAYYHMKQTHVSMYHILQALDIYQNHPLYSIRTIQSLFVIAGNYDDFKHYDKALPHLEAALELAMDIQNDRFIAISLLNIANSYDRSGDDQMAVEHFQKAAKVSREKVPDLLPKVLFGLSWTLCKAGQTQKAFQFIEEGLDHITARSHKFYKELFLFLQAVYKETVDERKIHDLLSYFEKKNLHAYIEACARSAAAVFESSCHFEQAAAFYRKVLKAQEDILKGECLYAY [F58A] | decreasing interaction |
| MSQAIPSSRVGVKINEWYKMIRQFSVPDAEILKAEVEQDIQQMEEDQDLLIYYSLMCFRHQLMLDYLEPGKTYGNRPTVTELLETIETPQKKLTGLLKYYSLFFRGMYEFDQKEYVEAIGYYREAEKELPFVSADIEKAEFHFKVAEAYYHMKQTHVSMYHILQALDIYQNHPLYSIRTIQSLFVIAGNYDDFKHYDKALPHLEAALELAMDIQNDRFIAISLLNIANSYDRSGDDQMAVEHFQKAAKVSREKVPDLLPKVLFGLSWTLCKAGQTQKAFQFIEEGLDHITARSHKFYKELFLFLQAVYKETVDERKIHDLLSYFEKKNLHAYIEACARSAAAVFESSCHFEQAAAFYRKVLKAQEDILKGECLYAY [D134A] | decreasing interaction |
| MSQAIPSSRVGVKINEWYKMIRQFSVPDAEILKAEVEQDIQQMEEDQDLLIYYSLMCFRHQLMLDYLEPGKTYGNRPTVTELLETIETPQKKLTGLLKYYSLFFRGMYEFDQKEYVEAIGYYREAEKELPFVSDDIAKAEFHFKVAEAYYHMKQTHVSMYHILQALDIYQNHPLYSIRTIQSLFVIAGNYDDFKHYDKALPHLEAALELAMDIQNDRFIAISLLNIANSYDRSGDDQMAVEHFQKAAKVSREKVPDLLPKVLFGLSWTLCKAGQTQKAFQFIEEGLDHITARSHKFYKELFLFLQAVYKETVDERKIHDLLSYFEKKNLHAYIEACARSAAAVFESSCHFEQAAAFYRKVLKAQEDILKGECLYAY [E137A] | disrupting interaction |
| MSQAIPSSRVGVKINEWYKMIRQFSVPDAEILKAEVEQDIQQMEEDQDLLIYYSLMCFRHQLMLDYLEPGKTYGNRPTVTELLETIETPQKKLTGLLKYYSLFFRGMYEFDQKEYVEAIGYYREAEKELPFVSDDIEKAEFHFKVAEAYYHMKQTHVSMYHILQALDIYQNHPLASIRTIQSLFVIAGNYDDFKHYDKALPHLEAALELAMDIQNDRFIAISLLNIANSYDRSGDDQMAVEHFQKAAKVSREKVPDLLPKVLFGLSWTLCKAGQTQKAFQFIEEGLDHITARSHKFYKELFLFLQAVYKETVDERKIHDLLSYFEKKNLHAYIEACARSAAAVFESSCHFEQAAAFYRKVLKAQEDILKGECLYAY [Y175A] | disrupting interaction |
